# Reference: US20120277144A1 (published 2012)
# B1: FYVE, RhoGEF and PH domain-containing 5 (FGD5) (enzyme)
# chain: MFRGPKPPIAPKPRLTAPNEWRASVYLNDSLNKCSNGRLPCVDRGLDEGPRSIPKCSESETDEDYIVVPRVPLREDEPKDEGSVGNKALVSPESSAEEEEEREEGGEACGLEGTGAGEDSVAPAAPGAGALSREGEEGTDLALEDEGEGCADEPGTLEQVSRSEEEEKLVQPHRECSLEDSGPWAGEGVFQSDLLLPHIHGEDQEPPDTPGEAEEDDEEGCASTDPAGADEGSGPDRPTEDMGQDAEDTSEEPPEKEELAGVQEAETATDCPEVLEEGCEEATGVTGGEQVDLSEPPDHEKKTNQEVAAATLEDHAQDESAEESCQIVPFENDCMEDFVTSLTGSPYEFFPTESTSFCSESCSPLSESAKGLESEQAPKLGLRAEENPMVGALCGQCGSLQGGAAEGPAAPDVVVVLEEEALDDALANPYVMGVGLPGQAAPGEGGQAASDALGGYGSKEELNCEAEGGLVPADRKNTSTRVRPHSGKVAGYVPETVPEETGPEAGSSAPGIGGAAEEVGKTLLSLEGKPLEASRALPAKPRAFTLYPRSFSVEGREIPVSVYQEPEGSGLDDHRIKRKEDNLSLSCVIGSSGSFSQRNHLPSSGTSTPSSMVDIPPPFDLACITKKPITKSSPSLLIESDSPDKYKKKKSSFKRFLALTFKKKTENKLHVDVNVSSSRSSSESSYHGPSRILEVDRRSLSNSPQLKSRTGKLRASESPSSLIFYRDGKRKGVPFSRTVSRVESFEDRSRPPFLPLPLTKPRSISFPSADTSDYENIPAMNSDYENIQIPPRRPARAGAFTKLFEDQSRALSTANENDGYVDMSSFNAFESKQQSADQDAESAYTEPYKVCPISSAAPKEDLTSDEEQRSSEEEDSASRDPSVTHKVEGQSRALVIAQELLSSEKAYVEMLQHLNLDFHGAVMRALDDMDHEGRDTLAREELRQGLSELPAIHDLHQGILEELEERLSNWESQQKVADVFLAREQGFDHHATHILQFDRYLGLLSENCLHSPRLAAAVREFEQSVQGGSQTAKHRLLRVVQRLFQYQVLLTDYLNNLCPDSAEYDNTQGALSLISKVTDRANDSMEQGENLQKLVHIEHSVRGQGDLLQPGREFLKEGTLMKVTGKNRRPRHLFLMNDVLLYTYPQKDGKYRLKNTLAVANMKVSRPVMEKVPYALKIETSESCLMLSASSCAERDEWYGCLSRALPEDYKAQALAAFHHSVEIRERLGVSLGERPPTLVPVTHVMMCMNCGCDFSLTLRRHHCHACGKIVCRNCSRNKYPLKYLKDRMAKVCDGCFGELKKRGRAVPGLMRERPVSMSFPLSSPRFSGSAFSSVFQSINPSTFKKQKKVPSALTEVAASGEGSAISGYLSRCKRGKRHWKKLWFVIKGKVLYTYMASEDKVALESMPLLGFTIAPEKEEGSSEVGPIFHLYHKKTLFYSFKAEDTNSAQRWIEAMEDASVL
# notes: Guanine-nucleotide exchange factor; The co-IP used lysates of HUVECs transfected with adenovirus encoding human FGD5 cDNA; also called Ad-FGD5 transgene product
# Biological target: Rac1 (human, UniProt P63000 1-189)
# Experiment: co-immunoprecipitation with anti-FGD5 antibody from lysates of FGD5 overexpressing HUVECs, western blot
# Method: GTP-RhoA, Rac1, and cdc42 activation levels were measured using the G-lisa detection system (Tebu-Bio, The Netherlands). For FGD5-protein complex co-immunoprecipitation, magnetic beads (Dynabeads, Invitrogen, The Netherlands) were coated and cross-linked with 2.5 μg anti-FGD5 antibody (Bioscience, The Netherlands) before immunoprecipitation overnight at 4° C. with protein cell lysates of transfected HUVECs (50 μg total protein of a volume of 100 μl incubation buffer). Beads were washed and the protein samples were eluted with eluation buffer (Invitrogen, The Netherlands) before analysis by western blot.
binder,measurement,value
B1,binding result,no binding
